In patent US20210284734A1 (SYMPHOGEN A S, published 2021):

B1: 12819.17149 Fab (Fab, V domains shown)
VH: EVQLLESGGGLVQPGGSLRLSCAASGFTFTRYDMVWVRQAPGKGLEWVAGIGDSNKMTRYAPAVKGRATISRDNSKNTLYLQMNSLRAEDTAVYYCAKGSCIACWDEAGRIDAWGQGTLVTVSS
VL: SYELTQDPAVSVALGQTVRITCSGGGSYDGSSYYGWYQQKPGQAPVTVIYNNNNRPSDIPDRFSGSSSGNTASLTITGAQAEDEADYYCGSYDRPETNSDYVGMFGSGTKVTVL
notes: monomeric Fab fragment
B2: 12865.17150 Fab (Fab, V domains shown)
VH: EVQLLESGGGLVQPGGSLRLSCAASGFDFSDHGMQWVRQAPGKGLEYVGVIDTTGRYTYYAPAVKGRATISRDNSKNTLYLQMNSLRAEDTAVYYCAKTTCVGGYLCNTVGSIDAWGQGTLVTVSS
VL: SYELTQDPAVSVALGQTVRITCSGGGSSSYYGWYQQKPGQAPVTVIYDDTNRPSGIPDRFSGSSSGNTASLTITGAQAEDEADYYCGGYEGSSHAGIFGSGTKVTVL
notes: monomeric Fab fragment
B3: 13112.15380 Fab (Fab, V domains shown)
VH: EVQLLESGGGLVQPGGSLRLSCAASGFTFSSYNMFWVRQAPGKGLEFVAEISGSNTGSRTWYAPAVKGRATISRDNSKNTLYLQMNSLRAEDTAVYYCAKSIYGGYCAGGYSCGVGLIDAWGQGTLVTVSS
VL: SYELTQDPAVSVALGQTVRITCSGGSSDYYGWFQQKPGQAPVTVIYYNNKRPSDIPDRFSGSSSGNTASLTITGAQAEDEADYYCGNADSSVGVFGSGTKVTVL

The binders below were run against T1, human PD-1 ECD-Fc N116A (human, UniProt Q15116 21-170) (assay: SPR, Fab on captured PD-1-Fc;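 note: Alanine-scan PD-1 Fc fusions expressed transiently in ExpiCHO, captured on anti-human IgG Fc surface in IBIS MX96, anti-PD-1 Fab association 15 min, dissociation 30 min, Langmuir 1:1 fit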).
T1 construct: not shown: human IgG1 Fc, residues P101-K330
T1 sequence (Q15116 21-170 N116A): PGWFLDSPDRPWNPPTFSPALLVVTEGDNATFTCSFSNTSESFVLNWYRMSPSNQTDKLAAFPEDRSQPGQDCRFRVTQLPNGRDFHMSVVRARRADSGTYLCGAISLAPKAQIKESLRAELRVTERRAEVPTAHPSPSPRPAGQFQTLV

Binder	KD mutant/KD wild-type [ratio]
B1	1.4
B2	0.8
B3	0.9

The binders below were run against T2, human PD-1 ECD-Fc G103A (human, UniProt Q15116 21-170) (assay: SPR, Fab on captured PD-1-Fc;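 note: Alanine-scan PD-1 Fc fusions expressed transiently in ExpiCHO, captured on anti-human IgG Fc surface in IBIS MX96, anti-PD-1 Fab association 15 min, dissociation 30 min, Langmuir 1:1 fit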).
T2 construct: not shown: human IgG1 Fc, residues P101-K330

Binder	KD mutant/KD wild-type [ratio]
B1	1.1
B2	0.8
B3	0.9

What follows are binders tested against T3, human PD-1 ECD-Fc N66A (human, UniProt Q15116 21-170) (assay: SPR, Fab on captured PD-1-Fc;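 note: Alanine-scan PD-1 Fc fusions expressed transiently in ExpiCHO, captured on anti-human IgG Fc surface in IBIS MX96, anti-PD-1 Fab association 15 min, dissociation 30 min, Langmuir 1:1 fit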).
T3 construct: not shown: human IgG1 Fc, residues P101-K330
T3 sequence (Q15116 21-170 N66A): as the sequence (Q15116 21-170 N116A) above, with N46A, A96N counted along it

Binder	KD mutant/KD wild-type [ratio]
B1	2.2
B2	2.1
B3	1

The binders below were run against T4, human PD-1 ECD-Fc Q75A (human, UniProt Q15116 21-170) (assay: SPR, Fab on captured PD-1-Fc;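 note: Alanine-scan PD-1 Fc fusions expressed transiently in ExpiCHO, captured on anti-human IgG Fc surface in IBIS MX96, anti-PD-1 Fab association 15 min, dissociation 30 min, Langmuir 1:1 fit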).
T4 construct: not shown: human IgG1 Fc, residues P101-K330
T4 sequence (Q15116 21-170 Q75A): as the sequence (Q15116 21-170 N116A) above, with Q55A, A96N counted along it

Binder	KD mutant/KD wild-type [ratio]
B1	1
B2	0.5
B3	0.9

The binders below were run against T5, human PD-1 ECD-Fc G22A (human, UniProt Q15116 21-170) (assay: SPR, Fab on captured PD-1-Fc).
T5 construct: not shown: human IgG1 Fc, residues P101-K330
T5 sequence (Q15116 21-170 G22A): as the sequence (Q15116 21-170 N116A) above, with G2A, A96N counted along it

Binder	KD mutant/KD wild-type [ratio]
B1	1
B2	0.9
B3	1

These binders were tested against T6, human PD-1 ECD-Fc A154G (human, UniProt Q15116 21-170) (assay: SPR, Fab on captured PD-1-Fc).
T6 construct: not shown: human IgG1 Fc, residues P101-K330
T6 sequence (Q15116 21-170 A154G): as the sequence (Q15116 21-170 N116A) above, with A96N, A134G counted along it

Binder	KD mutant/KD wild-type [ratio]
B1	0.8
B2	1
B3	1

These binders were tested against T7, human PD-1 ECD-Fc S159A (human, UniProt Q15116 21-170) (assay: SPR, Fab on captured PD-1-Fc).
T7 construct: not shown: human IgG1 Fc, residues P101-K330
T7 sequence (Q15116 21-170 S159A): as the sequence (Q15116 21-170 N116A) above, with A96N, S139A counted along it

Binder	KD mutant/KD wild-type [ratio]
B1	1.1
B2	0.8
B3	0.9

These binders were tested against T8, human PD-1 ECD-Fc Y68A (human, UniProt Q15116 21-170) (assay: SPR, Fab on captured PD-1-Fc).
T8 construct: not shown: human IgG1 Fc, residues P101-K330
T8 sequence (Q15116 21-170 Y68A): as the sequence (Q15116 21-170 N116A) above, with Y48A, A96N counted along it

Binder	KD mutant/KD wild-type [ratio]
B1	2.2
B2	1.4
B3	0.8

What follows are binders tested against T9, human PD-1 ECD-Fc D77A (human, UniProt Q15116 21-170) (assay: SPR, Fab on captured PD-1-Fc).
T9 construct: not shown: human IgG1 Fc, residues P101-K330
T9 sequence (Q15116 21-170 D77A): as the sequence (Q15116 21-170 N116A) above, with D57A, A96N counted along it

Binder	KD mutant/KD wild-type [ratio]
B1	2.8
B2	0.3
B3	1

The binders below were run against T10, human PD-1 ECD-Fc P156A (human, UniProt Q15116 21-170) (assay: SPR, Fab on captured PD-1-Fc).
T10 construct: not shown: human IgG1 Fc, residues P101-K330
T10 sequence (Q15116 21-170 P156A): as the sequence (Q15116 21-170 N116A) above, with A96N, P136A counted along it

Binder	KD mutant/KD wild-type [ratio]
B1	1
B2	1.1
B3	1.5

The binders below were run against T11, human PD-1 ECD-Fc E146A (human, UniProt Q15116 21-170) (assay: SPR, Fab on captured PD-1-Fc).
T11 construct: not shown: human IgG1 Fc, residues P101-K330
T11 sequence (Q15116 21-170 E146A): as the sequence (Q15116 21-170 N116A) above, with A96N, E126A counted along it

Binder	KD mutant/KD wild-type [ratio]
B1	1.2
B2	1
B3	1

The binders below were run against T12, human PD-1 ECD-Fc E84A (human, UniProt Q15116 21-170) (assay: SPR, Fab on captured PD-1-Fc).
T12 construct: not shown: human IgG1 Fc, residues P101-K330

Binder	KD mutant/KD wild-type [ratio]
B1	1.3
B2	1
B3	1

What follows are binders tested against T13, human PD-1 ECD-Fc G164A (human, UniProt Q15116 21-170) (assay: SPR, Fab on captured PD-1-Fc).
T13 construct: not shown: human IgG1 Fc, residues P101-K330
T13 sequence (Q15116 21-170 G164A): as the sequence (Q15116 21-170 N116A) above, with A96N, G144A counted along it

Binder	KD mutant/KD wild-type [ratio]
B1	1.1
B2	0.9
B3	1

The binders below were run against T14, human PD-1 ECD-Fc P160A (human, UniProt Q15116 21-170) (assay: SPR, Fab on captured PD-1-Fc).
T14 construct: not shown: human IgG1 Fc, residues P101-K330

Binder	KD mutant/KD wild-type [ratio]
B1	1
B2	0.8
B3	1

These binders were tested against T15, human PD-1 ECD-Fc P83A (human, UniProt Q15116 21-170) (assay: SPR, Fab on captured PD-1-Fc).
T15 construct: not shown: human IgG1 Fc, residues P101-K330
T15 sequence (Q15116 21-170 P83A): as the sequence (Q15116 21-170 N116A) above, with P63A, A96N counted along it

Binder	KD mutant/KD wild-type [ratio]
B1	1.5
B2	0.8
B3	0.9

Each binder was assayed against T16, human PD-1 ECD-Fc P158A (human, UniProt Q15116 21-170) (assay: SPR, Fab on captured PD-1-Fc).
T16 construct: not shown: human IgG1 Fc, residues P101-K330
T16 sequence (Q15116 21-170 P158A): as the sequence (Q15116 21-170 N116A) above, with A96N, P138A counted along it

Binder	KD mutant/KD wild-type [ratio]
B1	1.2
B2	0.9
B3	1

What follows are binders tested against T17, human PD-1 ECD-Fc Q167A (human, UniProt Q15116 21-170) (assay: SPR, Fab on captured PD-1-Fc).
T17 construct: label printed under 'Rat mutation', values in r90; not shown: human IgG1 Fc, residues P101-K330
T17 sequence (Q15116 21-170 Q167A): as the sequence (Q15116 21-170 N116A) above, with A96N, Q147A counted along it

Binder	KD mutant/KD wild-type [ratio]
B1	0.8
B2	1
B3	0.9

These binders were tested against T18, human PD-1 ECD-Fc S73A (human, UniProt Q15116 21-170) (assay: SPR, Fab on captured PD-1-Fc).
T18 construct: not shown: human IgG1 Fc, residues P101-K330
T18 sequence (Q15116 21-170 S73A): as the sequence (Q15116 21-170 N116A) above, with S53A, A96N counted along it

Binder	KD mutant/KD wild-type [ratio]
B1	0.9
B2	0.5
B3	0.9

Each binder was assayed against T19, human PD-1 ECD-Fc S71A (human, UniProt Q15116 21-170) (assay: SPR, Fab on captured PD-1-Fc).
T19 construct: not shown: human IgG1 Fc, residues P101-K330
T19 sequence (Q15116 21-170 S71A): as the sequence (Q15116 21-170 N116A) above, with S51A, A96N counted along it

Binder	KD mutant/KD wild-type [ratio]
B1	0.9
B2	0.9
B3	0.9

These binders were tested against T20, human PD-1 ECD-Fc Q88A (human, UniProt Q15116 21-170) (assay: SPR, Fab on captured PD-1-Fc).
T20 construct: not shown: human IgG1 Fc, residues P101-K330
T20 sequence (Q15116 21-170 Q88A): as the sequence (Q15116 21-170 N116A) above, with Q68A, A96N counted along it

Binder	KD mutant/KD wild-type [ratio]
B1	1.4
B2	1.4
B3	0.9

What follows are binders tested against T21, human PD-1 ECD-Fc F56A (human, UniProt Q15116 21-170) (assay: SPR, Fab on captured PD-1-Fc).
T21 construct: not shown: human IgG1 Fc, residues P101-K330
T21 sequence (Q15116 21-170 F56A): as the sequence (Q15116 21-170 N116A) above, with F36A, A96N counted along it

Binder	KD mutant/KD wild-type [ratio]
B1	1.5
B2	0.5
B3	0.8

These binders were tested against T22, human PD-1 ECD-Fc A40T (human, UniProt Q15116 21-170) (assay: SPR, Fab on captured PD-1-Fc).
T22 construct: also called Rat mutation A40T; not shown: human IgG1 Fc, residues P101-K330

Binder	KD mutant/KD wild-type [ratio]
B1	2
B2	1
B3	0.6

Each binder was assayed against T23, human PD-1 ECD-Fc C93A (human, UniProt Q15116 21-170) (assay: SPR, Fab on captured PD-1-Fc).
T23 construct: not shown: human IgG1 Fc, residues P101-K330
T23 sequence (Q15116 21-170 C93A): as the sequence (Q15116 21-170 N116A) above, with C73A, A96N counted along it

Binder	KD mutant/KD wild-type [ratio]
B1	1.2
B2	0.9
B3	1.1

These binders were tested against T24, human PD-1 ECD-Fc A163G (human, UniProt Q15116 21-170) (assay: SPR, Fab on captured PD-1-Fc).
T24 construct: not shown: human IgG1 Fc, residues P101-K330
T24 sequence (Q15116 21-170 A163G): as the sequence (Q15116 21-170 N116A) above, with A96N, A143G counted along it

Binder	KD mutant/KD wild-type [ratio]
B1	1
B2	1.1
B3	1.1

What follows are binders tested against T25, human PD-1 ECD-Fc N58A (human, UniProt Q15116 21-170) (assay: SPR, Fab on captured PD-1-Fc).
T25 construct: not shown: human IgG1 Fc, residues P101-K330

Binder	KD mutant/KD wild-type [ratio]
B1	1.3
B2	0.7
B3	1

Each binder was assayed against T26, human PD-1 ECD-Fc G47A (human, UniProt Q15116 21-170) (assay: SPR, Fab on captured PD-1-Fc).
T26 construct: not shown: human IgG1 Fc, residues P101-K330

Binder	KD mutant/KD wild-type [ratio]
B1	1.6
B2	0.5
B3	0.6

What follows are binders tested against T27, human PD-1 ECD-Fc P31A (human, UniProt Q15116 21-170) (assay: SPR, Fab on captured PD-1-Fc).
T27 construct: not shown: human IgG1 Fc, residues P101-K330
T27 sequence (Q15116 21-170 P31A): as the sequence (Q15116 21-170 N116A) above, with P11A, A96N counted along it

Binder	KD mutant/KD wild-type [ratio]
B1	1.1
B2	1
B3	1.1

Each binder was assayed against T28, human PD-1 ECD-Fc K135A (human, UniProt Q15116 21-170) (assay: SPR, Fab on captured PD-1-Fc).
T28 construct: not shown: human IgG1 Fc, residues P101-K330
T28 sequence (Q15116 21-170 K135A): as the sequence (Q15116 21-170 N116A) above, with A96N, K115A counted along it

Binder	KD mutant/KD wild-type [ratio]
B1	4.2
B2	1.1
B3	1.2

Each binder was assayed against T29, human PD-1 ECD-Fc S57A (human, UniProt Q15116 21-170) (assay: SPR, Fab on captured PD-1-Fc).
T29 construct: not shown: human IgG1 Fc, residues P101-K330
T29 sequence (Q15116 21-170 S57A): as the sequence (Q15116 21-170 N116A) above, with S37A, A96N counted along it

Binder	KD mutant/KD wild-type [ratio]
B1	1.2
B2	1
B3	1.1

These binders were tested against T30, human PD-1 ECD-Fc T98A (human, UniProt Q15116 21-170) (assay: SPR, Fab on captured PD-1-Fc).
T30 construct: not shown: human IgG1 Fc, residues P101-K330

Binder	KD mutant/KD wild-type [ratio]
B1	1.1
B2	0.9
B3	1

These binders were tested against T31, human PD-1 ECD-Fc V44A (human, UniProt Q15116 21-170) (assay: SPR, Fab on captured PD-1-Fc).
T31 construct: not shown: human IgG1 Fc, residues P101-K330
T31 sequence (Q15116 21-170 V44A): as the sequence (Q15116 21-170 N116A) above, with V24A, A96N counted along it

Binder	KD mutant/KD wild-type [ratio]
B1	1.4
B2	0.8
B3	9.9
